System: Escherichia coli TOP10
Assay: shrunken log2 fold change of peptide-encoding DNA abundance (4.5 h post-induction vs induction); higher = less antimicrobial activity (less host growth inhibition)
Details: time post-induction: 4.5 h; library: site-saturation at positions 5, 18, 19, 20
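Further: peptides expressed intracellularly from a pBAD plasmid library in pooled LB shake-flask culture, induced with 0.3% L-arabinose, DNA abundance read by NGS, three biological replicates, DESeq2 with apeglm shrinkage.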

RRIRLRPPRLPRPRPRPIFFPRP
shrunken log2 fold change: 0.103

RRIRFRPPRLPRPRPRPAGPPRP
shrunken log2 fold change: 0.118

RRIRARPPRLPRPRPRPGESPRP
shrunken log2 fold change: 0.014

RRIRKRPPRLPRPRPRPDIHPRP
shrunken log2 fold change: 0.167

RRIRFRPPRLPRPRPRPRLTPRP
shrunken log2 fold change: -0.212

RRIRARPPRLPRPRPRPKMQPRP
shrunken log2 fold change: 0.32

RRIRARPPRLPRPRPRPQYQPRP
shrunken log2 fold change: -0.243

RRIRERPPRLPRPRPRPDKEPRP
shrunken log2 fold change: -0.0205

RRIRMRPPRLPRPRPRPVWKPRP
shrunken log2 fold change: 0.178

RRIRSRPPRLPRPRPRPRECPRP
shrunken log2 fold change: 0.71

RRIRLRPPRLPRPRPRPIRIPRP
shrunken log2 fold change: -0.379

RRIRHRPPRLPRPRPRPGNNPRP
shrunken log2 fold change: -0.00857

RRIRYRPPRLPRPRPRPLCCPRP
shrunken log2 fold change: -0.391

RRIRDRPPRLPRPRPRPIWMPRP
shrunken log2 fold change: -0.00247

RRIRTRPPRLPRPRPRPCLQPRP
shrunken log2 fold change: -0.0598

RRIRFRPPRLPRPRPRPHVSPRP
shrunken log2 fold change: -0.135

RRIRKRPPRLPRPRPRPMMFPRP
shrunken log2 fold change: -0.0431

RRIRGRPPRLPRPRPRPQVMPRP
shrunken log2 fold change: 0.532

RRIRQRPPRLPRPRPRPLVWPRP
shrunken log2 fold change: 0.152

RRIRSRPPRLPRPRPRPLFIPRP
shrunken log2 fold change: -0.74

RRIRHRPPRLPRPRPRPPDGPRP
shrunken log2 fold change: 0.178

RRIRTRPPRLPRPRPRPGWWPRP
shrunken log2 fold change: 0.158

RRIRCRPPRLPRPRPRPPCNPRP
shrunken log2 fold change: -0.355

RRIRNRPPRLPRPRPRPKVLPRP
shrunken log2 fold change: -0.105

RRIRWRPPRLPRPRPRPCETPRP
shrunken log2 fold change: -0.0636

RRIRPRPPRLPRPRPRPKHQPRP
shrunken log2 fold change: 0.0315

RRIRKRPPRLPRPRPRPFIKPRP
shrunken log2 fold change: -0.0863

RRIRCRPPRLPRPRPRPMTYPRP
shrunken log2 fold change: -0.185

RRIRMRPPRLPRPRPRPCSQPRP
shrunken log2 fold change: -0.00549

RRIRNRPPRLPRPRPRPPCGPRP
shrunken log2 fold change: 0.317

RRIRMRPPRLPRPRPRPKMYPRP
shrunken log2 fold change: 0.0587

RRIRIRPPRLPRPRPRPHFKPRP
shrunken log2 fold change: -0.368

RRIRKRPPRLPRPRPRPRGRPRP
shrunken log2 fold change: 1.04

RRIRVRPPRLPRPRPRPAGEPRP
shrunken log2 fold change: 0.339

RRIRGRPPRLPRPRPRPPTDPRP
shrunken log2 fold change: 1.24

RRIRPRPPRLPRPRPRPFPYPRP
shrunken log2 fold change: -0.0798

RRIRDRPPRLPRPRPRPCRGPRP
shrunken log2 fold change: -0.138

RRIRPRPPRLPRPRPRPWQPPRP
shrunken log2 fold change: -0.0506

RRIRHRPPRLPRPRPRPPELPRP
shrunken log2 fold change: 0.469

RRIRHRPPRLPRPRPRPNKPPRP
shrunken log2 fold change: -0.0637

RRIRERPPRLPRPRPRPWCKPRP
shrunken log2 fold change: 0.00398

RRIRRRPPRLPRPRPRPVQWPRP
shrunken log2 fold change: 0.143

RRIRNRPPRLPRPRPRPWNRPRP
shrunken log2 fold change: 0.0601

RRIRERPPRLPRPRPRPGGQPRP
shrunken log2 fold change: 0.171

RRIRFRPPRLPRPRPRPMFQPRP
shrunken log2 fold change: -0.336

RRIRHRPPRLPRPRPRPQLWPRP
shrunken log2 fold change: 0.0534

RRIRSRPPRLPRPRPRPLMDPRP
shrunken log2 fold change: -0.00235

RRIRCRPPRLPRPRPRPCQRPRP
shrunken log2 fold change: 0.0663

RRIRHRPPRLPRPRPRPRCYPRP
shrunken log2 fold change: -0.154

RRIRMRPPRLPRPRPRPIWVPRP
shrunken log2 fold change: -0.0406

— the supplement of paper PMC9112550, “Optimization of the antimicrobial peptide Bac7 by deep mutational scanning” (BMC Biology, 2022)
